One assay relates to NRP1. Briefly: HDAC and DNMT inhibitor treatment of old mice: NRP1 protein in isolated ECs (immunoblot). Type of assay: in vivo, mouse. Particulars: old mice after PNX; 10 mg/kg VPA, 0.5 mg/kg AZA. On the procedure:
Injection of growth factor and treatment of HDAC and DNMT inhibitors. Three months old (young) mice were subjected to PNX, PH or kidney I/R and injected with 20 μg/kg […] or equal molar amounts of PDGF-BB, HGF, VEGF165, or TGFβ1 every three days. 3-mon Nrp1^+/+, Nrp1^iΔEC/iΔEC, or […] mice were also treated with […]. To test the regulation of […] and NRP1, old mice were treated with 10 mg/kg HDAC inhibitor VPA, 0.5 mg/kg DNMT1 inhibitor azacitidine (AZA), or combinatorial treatment of VPA and AZA (VPA+AZA). Expression of EPCR and NRP1 proteins in isolated lung, liver, and kidney ECs were tested by immunoblot, and […] amounts in homogenized organs was tested by ELISA.

In a further assay the test system is TIMP1. Particulars: old mice after PNX, PH, or kidney I/R.
Assay [1] concerns Lung and liver fibroblast cells. Put plainly: TIMP1 treatment of lung fibroblast and liver stellate cell (immunoblot). Type of assay: cell-based, mouse. The method, then:
TIMP1 treatment of lung fibroblast and liver stellate cell. Lung and liver fibroblast cells were from ScienceCell Research Laboratories and cultured as described previously (Reference 8). Lung and liver fibroblast cells were treated with 20 ng/ml TIMP1, 10 ng/ml TGFβ1, or 20 ng/ml TIMP1 and 10 ng/ml TGFβ1. To identify the role of β1 integrin in TIMP1-mediated fibroblast activation, p1 integrin was silenced in fibroblast cells by shRNA. After treatment, lung and liver fibroblast cells were retrieved for analysis of Smad2 phosphorylation and SMA protein expression by immunoblot. Smad2 phosphorylation and SMA protein expression were quantified by densitometry of immunoblot.
(Immunoblotting shows a protein as a band on a membrane.)

The test system of assay [2] is EPCR. Briefly: Growth factor injection after PNX: EPCR / HIF2α in lung ECs. It is filed as in vivo, mouse. On the procedure:
Mouse lung regeneration and repair models. To test mouse lung alveolar regeneration and repair, models of left lung PNX (Reference 19) and lung injury (Reference 7) were adapted. Mice were anesthetized with a cocktail of ketamine (100 mg/kg) and xylazine (10 mg/kg). PNX was carried out when left lung lobe was resected with a suture tied around the hilum. PCECs were purified from 20 months (designated as old) and 3 months old (designated as young) mice after PNX, and total RNA was isolated and subjected to transcriptome analysis as described. Intratracheal injection of 2 U/kg bleomycin was employed to induce lung injury. To block EPCR signaling, mice were intraperitoneally injected with EPCR neutralizing antibody 1560 at 1.5 mg/kg (Reference 46) after PNX and Bleo injection. Young Nrp1^iΔEC/iΔEC Hif2a^iΔEC/iΔEC, and control mice were also administered with 20 μg/kg mouse P1GF or same molar amounts of HGF and PDGF-BB (Peprotech) after PNX and PH. In addition, repeated intratracheal hydrochloric acid injection models were employed to induce lung injury (Reference 76). Orotracheal instillation was performed in anesthetized mice, and 20 μl of an iso-osmolar solution of 0.1 M hydrochloric acid (pH 1.0) was instilled. […] After recovery, mice were transferred to ventilated cages with access to food and water. […] At the described time points, pulmonary function and oxygen tension in arterial blood of treated mice were measured as previously described (Reference 7). To measure cell proliferation, 100 mg/kg 5-ethynyl-2′-deoxyuridine (EDU) was i.p. injected into mice one hour before sacrificing, and EDU incorporation was measured by EDU cell proliferation kit. Mice were i.p. supplemented with 1 ml PBS after all surgery procedures.
Injection of growth factor and treatment of HDAC and DNMT inhibitors. Three months old (young) mice were subjected to PNX, PH or kidney I/R and injected with 20 μg/kg P1GF or equal molar amounts of PDGF-BB, HGF, VEGF165, or TGFβ1 every three days. 3-mon Nrp1^+/+, Nrp1^iΔEC/iΔEC, or Hif2a^iΔEC/iΔEC mice were also treated with P1GF. To test the regulation of P1GF and NRP1, old mice were treated with 10 mg/kg HDAC inhibitor VPA, 0.5 mg/kg DNMT1 inhibitor azacitidine (AZA), or combinatorial treatment of VPA and AZA (VPA+AZA). Expression of EPCR and NRP1 proteins in isolated lung, liver, and kidney ECs were tested by immunoblot, and P1GF amounts in homogenized organs was tested by ELISA.

For assay [3], the system named is EPCR. Briefly: Growth factor injection after PH: EPCR in liver ECs. Particulars: liver lacking endothelial Nrp1 or Hif2a. Type of assay: in vivo, mouse. The method, then:
Mouse lung regeneration and repair models. To test mouse lung alveolar regeneration and repair, models of left lung PNX (Reference 19) and lung injury (Reference 7) were adapted. Mice were anesthetized with a cocktail of ketamine (100 mg/kg) and xylazine (10 mg/kg). PNX was carried out when left lung lobe was resected with a suture tied around the hilum. PCECs were purified from 20 months (designated as old) and 3 months old (designated as young) mice after PNX, and total RNA was isolated and subjected to transcriptome analysis as described. Intratracheal injection of 2 U/kg bleomycin was employed to induce lung injury. To block EPCR signaling, mice were intraperitoneally injected with EPCR neutralizing antibody 1560 at 1.5 mg/kg (Reference 46) after PNX and Bleo injection. Young Nrp1^iΔEC/iΔEC Hif2a^iΔEC/iΔEC, and control mice were also administered with 20 μg/kg mouse P1GF or same molar amounts of HGF and PDGF-BB (Peprotech) after PNX and PH. […] At the described time points, pulmonary function and oxygen tension in arterial blood of treated mice were measured as previously described (Reference 7). To measure cell proliferation, 100 mg/kg 5-ethynyl-2′-deoxyuridine (EDU) was i.p. injected into mice one hour before sacrificing, and EDU incorporation was measured by EDU cell proliferation kit. […]

The next assay deals with mouse liver fibrosis. Briefly: CCl4 liver injury / fibrosis model. It is filed as in vivo. The settings on record: Nrp1 iΔEC/iΔEC mice after chronic injury. On the procedure: Animal Care and Mouse lines used.
Mouse liver regeneration and repair models. Mouse liver regeneration was induced by PH.
Tissue fibrosis determination. Lung, liver and kidney fibrotic responses were determined at the indicated time after injury. Tissues were homogenized in tissue lysis buffer. Immunoblot of Collagen I was performed with the obtained tissue lysates. Protein level of Collagen I was compared between different groups. Sirius red and hematoxylin stainings were performed on paraffin-embedded tissue sections to determine the tissue morphology and Collagen deposition and distribution (Reference 8). Sirius red-positive fibrotic parenchyma was determined from five random fields in each section and quantified. Hydroxyproline amount was quantified in the liver and lung to determine the extent of fibrosis.

The next assay has as its system kidney fibrosis. Put plainly: Folic acid kidney fibrosis model. Type of assay: in vivo, mouse. The settings on record: Nrp1 iΔEC/iΔEC mice after chronic injury. On the procedure: Animal Care and Mouse lines used. […] This mouse line was crossed with floxed Nrp1 […] mice to generate […] and control mice. […] Mouse kidney regeneration and repair models. Mouse kidney I/R model was adopted from described (Reference 72). After mice were anesthetized, ischemia was induced by the retroperitoneal approach on both kidneys for 30 min. Sham operation was carried out with exposure of kidneys without inducing ischemia. To generate kidney fibrosis, mice were given a single i.p. injection of folic acid at the dose of 250 mg/kg, as previously described (Reference 74). […] At indicated time, serum creatinine concentration was measured by the picric acid method, and tissue morphology and fibrosis were analyzed by Sirius red and hematoxylin co-stainings. Tissue fibrosis determination. Lung, liver and kidney fibrotic responses were determined at the indicated time after injury. Tissues were homogenized in tissue lysis buffer. Immunoblot of Collagen I was performed with the obtained tissue lysates. Protein level of Collagen I was compared between different groups. […] Sirius red-positive fibrotic parenchyma was determined from five random fields in each section and quantified. Hydroxyproline amount was quantified in the liver and lung to determine the extent of fibrosis.

Where [4] appears, read: 20 ng/ml TIMP1, co-treatment with 10 ng/ml TGF-β1.

`CCCC(CCC)C(=O)O` [VPA, valproic acid]: in the assay on NRP1, the “expression of NRP1 in lung ECs” value is “reduced”.

For the molecule `c1cc(CN2CCCNCCNCCCNCC2)ccc1CN1CCCNCCNCCCNCC1` [AMD3100], in the assay on TIMP1, the “TIMP1 upregulation in the macrophages of old organs” value is on record as “attenuated”.

Consider “TIMP1: recombinant tissue inhibitor of metalloproteinases 1 incubated with fibroblast cells”, for which the entries for the “phosphorylation of Smad2” value in assay [1] (20 ng/ml TIMP1) and in assay [1] (setting [4]) were “augmented” and “further enhanced”, respectively. Also, the “smooth muscle cell actin (SMA) protein expression” value is recorded as “augmented” in assay [1] (20 ng/ml TIMP1) and “further enhanced” in assay [1] (setting [4]).

B1: P1GF: placenta growth factor, NRP1 ligand, injected into mice (protein, UniProt P49763 19-221, looked up)
Placenta growth factor: LPAVPPQQWALSAGNGSSEVEVVPFQEVWGRSYCRALERLVDVVSEYPSEVEHMFSPSCVSLLRCTGCCGDENLHCVPVETANVTMQLLKIRSGDRPSYVELTFSQHVRCECRHSPGRQSPDMPGDFRADAPSFLPPRRSLPMLFRMEWGCALTGSQSAVWPSSPVPEEIPRMHPGRNGKKQQRKPLREKMKPERCGDAVPRR
Turning to B1, the “effect of P1GF on EPCR / HIF2a” value in the assay with EPCR [2] (Nrp1 iΔEC/iΔEC mice after PNX) is on record as “abrogated”. In the assay with EPCR [2] (young Hif2a iΔEC/iΔEC mice after PNX), the “EPCR in lung ECs” value is given as “did not suppress”. Further, in the assay with EPCR [2] (young mice after PNX, 20 μg/kg), the “HIF2a in lung ECs” value is “enhanced”. Moreover, the “EPCR expression in lung ECs” value in the assay on EPCR [2] (young mice after PNX, 20 μg/kg or equal molar amounts) is “suppressed”. Also, the “EPCR upregulation in liver ECs” value in the assay on EPCR [3] is recorded as “did not prohibit”.

B2: activated protein C (protein, UniProt P04070 200-461, looked up)
Vitamin K-dependent protein C …: DTEDQEDQVDPRLIDGKMTRRGDSPWQVVLLDSKKKLACGAVLIHPSWVLTAAHCMDESKKLLVRLGEYDLRRWEKWELDLDIKEVFVHPNYSKSTTDNDIALLHLAQPATLSQTIVPICLPDSGLAERELNQAGQETLVTGWGYHSSREKEAKRNRTFVLNFIKIPVVPHNECSEVMSNMVSENMLCAGILGDRQDACEGDSGGPMVASFHGTWFLVGLVSWGEGCGLLHNYGVYTKVSRYLDWIHGHIRDKEAPQKSWAP
modifications: Vitamin K-dependent protein C heavy chain activated two-chain form
On to B2, for which, in the assay on mouse liver fibrosis, the “EPCR expression in liver ECs” value was “enhanced” and the “HIF2A induction in liver ECs” value is “suppressed”. Besides, in the assay on kidney fibrosis, the “EPCR expression in kidney ECs” value was “enhanced” and the “HIF2A induction in kidney ECs” value is “suppressed”.

The record behind these values is patent US20240316011A1, “ANTI-FIBROSIS PHARMACEUTICAL COMPOSITION AND APPLICATION THEREOF” (West China Second University Hospital, priority 2020, published 2024).
